# T1: FLAG-tagged rat AT1a receptor (rAT1aR), WT, full length (rat, UniProt P25095 1-359)
# T1 construct: Angiotensin II type 1a receptor (AT1aR), rat, full length; also called AT1R; Angiotensin II type 1 receptor; source: COS-7, transiently transfected, on whole cells; not shown: FLAG, N-terminal, kept
# T1 sequence (looked up): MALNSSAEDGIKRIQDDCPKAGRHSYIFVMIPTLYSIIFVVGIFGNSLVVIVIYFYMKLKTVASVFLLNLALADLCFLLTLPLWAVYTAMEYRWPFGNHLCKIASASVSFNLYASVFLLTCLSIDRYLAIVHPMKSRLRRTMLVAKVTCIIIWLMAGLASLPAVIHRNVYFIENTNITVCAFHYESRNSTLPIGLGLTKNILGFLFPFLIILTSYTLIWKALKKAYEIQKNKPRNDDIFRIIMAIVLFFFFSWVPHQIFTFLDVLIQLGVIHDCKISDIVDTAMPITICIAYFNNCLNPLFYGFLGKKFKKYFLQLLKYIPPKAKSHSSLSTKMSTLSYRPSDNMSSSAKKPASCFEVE
# T2: FLAG-tagged rat AT1a receptor WT truncated after serine 331 (WT 331Δ) (rat, UniProt P25095 1-331)
# T2 construct: source: COS-7, transiently transfected, on whole cells; not shown: FLAG, N-terminal, kept
# T2 sequence (looked up): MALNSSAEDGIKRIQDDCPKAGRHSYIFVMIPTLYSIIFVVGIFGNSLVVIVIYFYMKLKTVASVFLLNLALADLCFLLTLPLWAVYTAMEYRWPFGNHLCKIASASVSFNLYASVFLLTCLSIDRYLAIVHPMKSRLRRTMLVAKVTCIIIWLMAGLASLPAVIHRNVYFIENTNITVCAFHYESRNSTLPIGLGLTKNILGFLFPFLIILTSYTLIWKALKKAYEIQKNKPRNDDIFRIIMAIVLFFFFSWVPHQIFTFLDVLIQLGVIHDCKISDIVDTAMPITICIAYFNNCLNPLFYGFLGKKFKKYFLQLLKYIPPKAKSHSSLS
# Columns and labels:
# [1] = target: Luc-tagged rat AT1a receptor DRY/AAY truncated after serine 331 (DRY/AAY 331Δ) (rat) (UniProt P25095); test: FRET or BRET; BRET2 in live HEK293 cells co-transfected with Luc-tagged rAT1aR and GFP2-β-arrestin2; dose-response to Ang II, read 15 min after agonist addition
# [2] = target: Luc-tagged rat AT1a receptor DRY/AAY, full length (rat) (UniProt P25095); test: as above
# [3] = target: Luc-tagged rat AT1a receptor DRY/AAY truncated after serine 331 (DRY/AAY 331Δ) (rat) (UniProt P25095); test: FRET or BRET; BRET2 in live HEK293 cells co-transfected with Luc-tagged rAT1aR and GFP2-β-arrestin2; dose-response to SII Ang II, read 15 min after agonist addition
# [4] = target: Luc-tagged rat AT1a receptor DRY/AAY, full length (rat) (UniProt P25095); test: as above
# [5] = target: FLAG-tagged rat AT1a receptor DRY/AAY truncated after serine 331 (DRY/AAY 331Δ) (rat) (UniProt P25095); test: radioligand binding; whole-cell heterologous competition on transfected COS-7 cells: 1 nM 3H-Ang II tracer and increasing unlabeled SII Ang II, 3 h at 4°C; pKi calculated from Ang II KD values of experiments run in parallel
# [6] = target: FLAG-tagged rat AT1a receptor DRY/AAY, full length (rat) (UniProt P25095); test: as above
# [7] = target: T1, FLAG-tagged rat AT1a receptor (rAT1aR), …; test: as above; settings: one partner purified
# [8] = target: T2, FLAG-tagged rat AT1a receptor WT …; test: as above; settings: one partner purified
molecule,measurement,setting,value
GFP2-tagged β-arrestin2 (from UniProt P32121 1-409) (natural protein),pEC50 of Ang II for induced recruitment (BRET2),[1],8.2
same,pEC50 of Ang II for induced recruitment (BRET2),[2],8.2
same,"pEC50 of SII Ang II for induced recruitment (BRET2, from normalized curves)",[3],7
same,pEC50 of SII Ang II for induced recruitment (BRET2),[4],7.5
Sar1-Ile4-Ile8 (SII) Ang II (peptide),pKi,[5],6.2
same,pKi,[6],6.1
GRVIIHPI (sarcosine at position 1 (Sar1)) [Sar1-Ile4-Ile8 (SII) Ang II],pKi,[7],5.9
same,pKi,[8],6

# — paper PMC2994726 (PLoS ONE, 2010)
